# Reference: patent publication US20240270846A1 (published 2024)
# Changes are numbered by the printed parent chain.
# T1: cynomolgus monkey CD137 (cynomolgus monkey, UniProt Q07011 24-186 (human entry), limits assumed)
# T1 construct: Soluble analyte in the Biacore assay; also called cyno CD137
# T1 chain: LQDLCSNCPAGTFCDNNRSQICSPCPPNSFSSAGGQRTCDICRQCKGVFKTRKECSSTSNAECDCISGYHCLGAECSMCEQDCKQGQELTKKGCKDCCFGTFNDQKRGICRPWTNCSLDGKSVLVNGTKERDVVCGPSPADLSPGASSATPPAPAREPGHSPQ
# B1: dBBDu139 (antibody, human IgG1, V domains shown)
# VH: QVQLVESGGGLVQPGRSLRLSCAASGFTFSNAWMHWVRQAPGKGLEWVAQIKDRGNAYNAYYAESVKGRFTISRDDSKNSIYLQMNSLKTEDTAVYYCRFVHYRHPLLHIQYGVDAWGQGTTVTVSS
# VL: DIVMTQSPLSLPVTPGEPASISCRSSQSLVHSNRNTYLHWYQQKPGQAPRLLIYKVSNRFSGVPDRFSGSGSGTDFTLKISRVEAEDVGVYYCGQGTQVPYTFGQGTKLEIK
# notes: IgG: VH joined to human IgG1 CH1-Fc, GLS3000 as light chain
# B2: dBBDu197 (antibody, human IgG1, V domains shown)
# VH: QVQLVESGGGLVQPGRSLRLSCAASGFTFSNAWMHWVRQAPGKGLEWVAQIKDRSNAYAAYYAPSVKGRFTISRDDSKNSIYLQMNSLKTEDTAVYYCHYVHYASASTVLPAFGVDAWGQGTTVTVSS
# VL: B1 VL
# notes: as for B1
# B3: dBBDu122 (antibody, human IgG1, V domains shown)
# VH: B2 VH with N56Q, A57L, P111G, F113Y
# VL: B1 VL
# notes: IgG: VH joined to human IgG1 CH1-Fc, GLS3000 as light chain; also called DXDU01_3_#072; DXDU01_3 #072
# B4: dBBDu127 (antibody, human IgG1, V domains shown)
# VH: B2 VH with S55G, N56Q, A57Q, A59N, T108S, A112G, F113Y
# VL: B1 VL
# notes: IgG: VH joined to human IgG1 CH1-Fc, GLS3000 as light chain; also called DXDU01_3_#051; DXDU01_3 #051
# B5: dBBDu179 (antibody, human IgG1, V domains shown)
# VH: B2 VH with A57Q, A60T
# VL: B1 VL
# notes: as for B1
# B6: dBBDu167 (antibody, human IgG1, V domains shown)
# VH: B2 VH with R54K, S55G, A57L, S107G, T108G, V109G, A112G
# VL: B1 VL
# notes: as for B1
# B7: dBBDu173 (antibody, human IgG1, V domains shown)
# VH: B2 VH with R54K, S55G, A57L, S107G, T108G, V109G, P111S, F113Y
# VL: B1 VL
# notes: as for B1
# B8: dBBDu121 (antibody, human IgG1, V domains shown)
# VH: B2 VH with R54K, S55G, S107A, T108G, V109G, A112G
# VL: B1 VL
# notes: IgG: VH joined to human IgG1 CH1-Fc, GLS3000 as light chain; also called DXDU01_3_#094; DXDU01_3 #094
# B9: dBBDu123 (antibody, human IgG1, V domains shown)
# VH: B2 VH with S55A, A57S, A59N, A104S, S105A, V109L, A112S
# VL: B1 VL
# notes: IgG: VH joined to human IgG1 CH1-Fc, GLS3000 as light chain; also called DADU01_3_#018; DADU01_3 #018
# B10: dBBDu124 (antibody, human IgG1, V domains shown)
# VH: B2 VH with R54K, S55Q, A57L, A59N, P64E
# VL: B1 VL
# notes: IgG: VH joined to human IgG1 CH1-Fc, GLS3000 as light chain; also called DADU01_3_#002; DADU01_3 #002
# B11: dBBDu126 (antibody, human IgG1, V domains shown)
# VH: QVQLVESGGGLVQPGRSLRLSCAASGFTFSIAWMHWVRQAPGKGLEWVAQIKDRVNAYEAYYAPSVKGRFTISRDDSKNSIYLQMNSLKTEDTAVYYCRYVHYASYYDLLGYGGVDAWGQGTTVTVSS
# VL: B1 VL
# notes: IgG: VH joined to human IgG1 CH1-Fc, GLS3000 as light chain; also called DADU01_3_#001; DADU01_3 #001
# B12: dBBDu_186 / dBBDu_L100 (antibody, human IgG1, V domains shown)
# VH: B2 VH with A57Q, A60T, S105Q
# VL: DIVMTQSPLSLPVTPGEPASISCSASEELVHINRYIFLHWYQQKPGQAPRLLIYKVYNRFMGVPDRFSGSGSGTDFTLKISRVEAEDVGVYYCGQGSSVPFTFGQGTKLEIK
# notes: Tested as IgG (human IgG1 constant region, kappa light chain); also called dBBDu186/L100
# B13: dBBDu_193 / dBBDu.L132 (antibody, human IgG1, V domains shown)
# VH: B2 VH with A57Q, A60T, A104S, S105A, V109L, A112S
# VL: B12 VL with S24Q, A25T, Y35F, Y57S, M61S, G94A, S97T
# notes: Tested as IgG (human IgG1 constant region, kappa light chain); also called dBBDu193/L132; dBBDu_193/L132
# B14: dBBDu_189 / dBBDu_L126 (antibody, human IgG1, V domains shown)
# VH: B2 VH with V48I, A57Q, A60T, S105Q, T108S, V109L, A112S
# VL: B12 VL with S24R, A25T, V30L, Y57Q, M61S, G94A, S98A
# notes: Tested as IgG (human IgG1 constant region, kappa light chain); also called dBBDu189/L126
# B15: dBBDu_186 / dBBDu_L106 (antibody, human IgG1, V domains shown)
# VH: B2 VH with A57Q, A60T, S105Q
# VL: B12 VL with A25T, V30L, Y35F, Y57A, G94A, S98Q
# notes: Tested as IgG (human IgG1 constant region, kappa light chain); also called dBBDu186/L106
# B16: dBBDu_189 / dBBDu_L119 (antibody, human IgG1, V domains shown)
# VH: B2 VH with V48I, A57Q, A60T, S105Q, T108S, V109L, A112S
# VL: B12 VL with S24T, E27Q, Y35F, Y57S, M61I, G94A, S98Q
# notes: Tested as IgG (human IgG1 constant region, kappa light chain); also called dBBDu189/L119
# B17: dBBDu_186 / dBBDu_L108 (antibody, human IgG1, V domains shown)
# VH: B2 VH with A57Q, A60T, S105Q
# VL: B12 VL with S24R, A25T, V30L, Y35F, I36T, Y57S, G94A, S98A
# notes: Tested as IgG (human IgG1 constant region, kappa light chain); also called dBBDu186/L108
# B18: dBBDu_167 / dBBDu.L094 (antibody, human IgG1, V domains shown)
# VH: B2 VH with R54K, S55G, A57L, S107G, T108G, V109G, A112G
# VL: B12 VL with S24Y, V30L, Y35H, F37Y, M61N, G94A
# notes: Tested as IgG (human IgG1 constant region, kappa light chain); also called dBBDu167/L094; dBBDu_167/L094
# B19: dBBDu_193 / dBBDu.L127 (antibody, human IgG1, V domains shown)
# VH: B2 VH with A57Q, A60T, A104S, S105A, V109L, A112S
# VL: B12 VL with S24R, V30L, Y35H, M61T, G94A, S97T
# notes: Tested as IgG (human IgG1 constant region, kappa light chain); also called dBBDu193/L127; dBBDu_193/L127
# Target: T2, biotin-labeled human CD137 fused to human IgG1 Fc fragment (human, biotin-labeled)
# T2 construct: Immobilised on streptavidin beads through biotin; also called human CD137-Fc; biotin-human CD137-Fc
# Assay: bead ELISA, IgG on biotin-human CD137-Fc on streptavidin beads, no free CD3e
# 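Wherever ELISA signal, free CD3e 125 pmol/well is given: bead ELISA on streptavidin-coated magnetic beads, with the signal read as well fluorescence 2 min after APS-5 addition.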
row,Binder,"ELISA signal, free CD3e 0 pmol/well"
1,B1,9440
2,B2,54400
3,B3,2700
4,B4,3230
5,B5,61000
6,B6,25700
7,B7,6540
8,B8,3610
9,B9,2750
10,B10,6620
11,B11,116000

# Target: T3, human CD3ed (human, UniProt P07766 23-126; P04234 22-105, limits assumed)
# T3 construct: The construct injected as 'human CD3ed' in the Biacore assay is not defined; also called human CD3 epsilon/delta heterodimer
# Assay: SPR Biacore T200, IgG captured on protein A, antigen as analyte, 25 C;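 further: antigens flowed over a CM3 chip for 120 s association, KD derived from ka and kd, running buffer (ACES, NaCl, Tween20, pH 7.4) served as blank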
Binder,Kd [nM],koff [s⁻¹],kon [M⁻¹ s⁻¹]
B12,3360,0.0546,16200
B13,2030,0.0201,9890
B14,2570,0.0281,10900
B15,3090,0.0318,10300
B16,2060,0.0258,12500
B17,3010,0.0408,13600
B18,349,0.021,60200
B19,1510,0.0191,12600

# Target: T4, human CD137 (human, UniProt Q07011 24-186)
# T4 construct: Soluble analyte in the Biacore assay; also called 4-1BB; hCD137
# Assay: as above
Binder,Kd [µM],koff [s⁻¹],kon [M⁻¹ s⁻¹]
B12,1.91,0.000746,391
B13,4.48,0.00211,471
B14,0.513,0.000688,1340
B15,3.44,0.000447,130
B16,2.71,0.000402,148
B17,2.41,0.00081,335
B18,8.43,0.0102,1210
B19,3.3,0.00145,440

# Target: T1, cynomolgus monkey CD137
# Assay: as above
Binder,Kd [µM],koff [s⁻¹],kon [M⁻¹ s⁻¹]
B12,70.4,0.00208,
B13,757,0.0061,
B14,3.06,0.00247,807
B15,61.3,0.00126,
B16,35.7,0.00122,
B17,16.1,0.00361,225
B18,6.92,0.0748,10800
B19,28.1,0.00316,112

# Target: T2, biotin-labeled human CD137 fused to …
# Assay: competitive bead ELISA, decrease of signal on biotin-human CD137-Fc with 125 pmol/well free CD3 epsilon peptide against 0
row,Binder,Signal decrease [%]
1,B1,79.6
2,B2,96.1
3,B3,30.2
4,B4,32
5,B5,95.7
6,B6,92.5
7,B7,68.8
8,B8,49.4
9,B9,33
10,B10,68
11,B11,97.8

# Target: T2, biotin-labeled human CD137 fused to …
# Assay: competitive bead ELISA, IgG on biotin-human CD137-Fc, competitor free CD3 epsilon peptide 125 pmol/well
row,Binder,"ELISA signal, free CD3e 125 pmol/well"
1,B1,1920
2,B2,2110
3,B3,1880
4,B4,2200
5,B5,2620
6,B6,1940
7,B7,2040
8,B8,1830
9,B9,1840
10,B10,2120
11,B11,2610
